Measured values: patent US20030149244A1 (Genentech, published 2003)

Key:
[1] = biological target: T1, human IgE (human, UniProt P01854 1-546, FITC-, biotin- or 125I-labelled in some assays); test: soluble receptor ELISA, ratio of 50% inhibition concentrations
[2] = biological target: T1, human IgE; test: as above; remark: listed apart in the source
[3] = biological target: T1, human IgE; test: FACS, blocking of FITC-IgE binding to FcεRII (CD23) on IM9 cells
[4] = biological target: membrane IgE on U266B1 cells (human, UniProt P01854 1-546); test: FACS on membrane IgE+ U266B1 cells
membrane IgE on U266B1 cells, sequence (P01854 whole entry, one chain of several): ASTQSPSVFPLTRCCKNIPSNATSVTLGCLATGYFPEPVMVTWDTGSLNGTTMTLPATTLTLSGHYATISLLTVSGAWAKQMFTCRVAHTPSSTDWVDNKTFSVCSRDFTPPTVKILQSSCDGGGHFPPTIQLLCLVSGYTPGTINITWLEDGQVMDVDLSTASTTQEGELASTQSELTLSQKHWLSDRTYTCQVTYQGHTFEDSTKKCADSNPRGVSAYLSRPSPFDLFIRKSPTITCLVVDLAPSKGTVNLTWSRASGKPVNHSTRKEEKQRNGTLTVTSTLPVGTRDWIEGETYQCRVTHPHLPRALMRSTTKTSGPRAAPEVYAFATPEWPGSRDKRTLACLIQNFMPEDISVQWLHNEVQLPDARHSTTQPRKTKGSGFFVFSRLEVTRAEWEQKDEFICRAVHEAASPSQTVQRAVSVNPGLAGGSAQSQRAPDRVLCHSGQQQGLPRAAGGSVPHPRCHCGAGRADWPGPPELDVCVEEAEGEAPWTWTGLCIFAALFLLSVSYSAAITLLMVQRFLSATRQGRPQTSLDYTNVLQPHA

T1 sequence (P01854 whole entry): as the sequence (P01854 whole entry, one chain of several) above

| ratio F(ab)-X / F(ab)-2 [1] | ratio F(ab)-X / MaE11 [1] | ratio Variant X / IgG1-2 [2] | ratio Variant X / MaE11 [2] | EC50 [3] | EC50 [4] | Binder |
| --- | --- | --- | --- | --- | --- | --- |
| 0.03 | 1 | 0.06 | 1 |  |  | MaE11 (antibody, mouse IgG1, V domains shown, murine IgG1; also called murine MaE11; MeE11) VH: DVQLQESGPGLVKPSQSLSLACSVTGYSITSGYSWNWIRQFPGNKLEWMGSITYDGSSNYNPSLKNRISVTRDTSQNQFFLKLNSATAEDTATYYCARGSHYFGHWHFAVWGAGTTVTVSS VL: DIQLTQSPASLAVSLGQRATISCKASQSVDYDGDSYMNWYQQKPGQPPILLIYAASYLGSEIPARFSGSGSGTDFTLNIHPVEEEDAATFYCQQSHEDPYTFGAGTKLEIK |
|  |  |  |  | 0.7 µg/mL | 1 µg/mL | MaE13 (antibody, V domains shown) VH: DVQLQESGPGLVKPSQSLSLTCTVTGYTITSDNAWNWIRQFPGNKLEWMGYINHSGTTSYNPSLKSRISITRDTSKNQFFLQLNSVTTEDTATYYCAWVVAYAMDYWGQGTSVTVSS VL: DIVMTQSQKFMSTSVGDRVSVTCKASQNVSSNVAWYQQKPGQSPKALIYSASYRYSGVPDRFTGSGSGTDFTLTISNVQSEDLAEYFCQQYYTYPLYTFGGGTKLEIK |
|  |  |  |  | 0.6 µg/mL | 6 µg/mL | MaE15 (antibody, V domains shown) VH: DVQHQESEPDLVKPSQSLSLTCTVTGYSITSGYNRHWIRQFPGNKLEWMGYIHYSGSTNYNPSLKRRISITRDTSKNQFFLQLNSVTTEDTATYYCARGSIYYYGSRYRYFDVWGAGTTVTVSS VL: DIQLTQSPASLAVSLGQRATISCKASQSVDYDGDSYMNWYQQKPGQPPKLLIYAASNLESGIPARFSGSGSGTDFTLNIHPVEEEDAATYYCQQSNEDPFTFGAGT |
